Assay results from PMC7383237, “Diversification of DNA-Binding Specificity by Permissive and Specificity-Switching Mutations in the ParB/Noc Protein Family”.
Changes are numbered by the printed parent chain.

T1: ParB PtoN7 (QTAR) (Caulobacter crescentus, UniProt B8GW30 1-304, R173Q;G201R)
T1 sequence: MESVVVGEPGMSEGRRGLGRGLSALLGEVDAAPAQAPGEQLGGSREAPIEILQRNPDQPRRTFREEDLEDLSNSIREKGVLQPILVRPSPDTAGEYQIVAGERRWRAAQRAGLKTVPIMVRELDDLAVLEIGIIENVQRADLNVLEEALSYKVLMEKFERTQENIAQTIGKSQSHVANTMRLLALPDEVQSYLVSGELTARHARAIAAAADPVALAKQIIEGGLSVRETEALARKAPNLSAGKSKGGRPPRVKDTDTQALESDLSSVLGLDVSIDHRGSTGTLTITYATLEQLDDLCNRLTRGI

T2: ParB PtoN1 (QTAG) (Caulobacter crescentus, UniProt B8GW30 1-304, R173Q)
T2 sequence: T1 sequence with R201G

T3: ParB DBD (Caulobacter crescentus, UniProt B8GW30 126-243)
T3 sequence: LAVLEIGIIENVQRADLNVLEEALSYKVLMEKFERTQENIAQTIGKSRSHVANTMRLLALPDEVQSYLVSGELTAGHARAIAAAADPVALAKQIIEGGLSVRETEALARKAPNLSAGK

T4: ParB WT (RTAG) (Caulobacter crescentus, UniProt B8GW30 1-304)
T4 sequence: T1 sequence with Q173R, R201G

B1: NBS BLI duplex (dsDNA)
DNA 1: GGGATATTTCCCGGGAAATA
DNA 2: TATTTCCCGGGAAATATCCC
B2: site7 (dsDNA)
DNA 1: GGGATCTTTCCCGGGAAAGA
DNA 2: TCTTTCCCGGGAAAGATCCC
B3: site9 (dsDNA)
DNA 1: GGGATTTTTCTCGAGAAAAA
DNA 2: TTTTTCTCGAGAAAAATCCC
B4: site2 (dsDNA)
DNA 1: GGGATGTTTCGCGCGAAACA
DNA 2: TGTTTCGCGCGAAACATCCC
B5: site10 (dsDNA)
DNA 1: GGGATTTTTCGCGCGAAAAA
DNA 2: TTTTTCGCGCGAAAAATCCC
B6: site11 (dsDNA)
DNA 1: GGGATTTTTCCCGGGAAAAA
DNA 2: TTTTTCCCGGGAAAAATCCC
B7: parS 20-bp crystal duplex (dsDNA)
DNA 1: GATGTTTCACGTGAAACATC
DNA 2: GATGTTTCACGTGAAACATC
B8: site12 (dsDNA)
DNA 1: GGGATATTTCACGTGAAATA
DNA 2: TATTTCACGTGAAATATCCC
B9: site1 (dsDNA)
DNA 1: GGGATGTTTCTCGAGAAACA
DNA 2: TGTTTCTCGAGAAACATCCC
B10: site13 (dsDNA)
DNA 1: GGGATATTTCTCGAGAAATA
DNA 2: TATTTCTCGAGAAATATCCC
B11: site6 (dsDNA)
DNA 1: GGGATCTTTCGCGCGAAAGA
DNA 2: TCTTTCGCGCGAAAGATCCC
B12: parS BLI duplex (dsDNA)
DNA 1: GGGATGTTTCACGTGAAACA
DNA 2: TGTTTCACGTGAAACATCCC
B13: site4 (dsDNA)
DNA 1: GGGATCTTTCACGTGAAAGA
DNA 2: TCTTTCACGTGAAAGATCCC
B14: site8 (dsDNA)
DNA 1: GGGATTTTTCACGTGAAAAA
DNA 2: TTTTTCACGTGAAAAATCCC
B15: site14 (dsDNA)
DNA 1: GGGATATTTCGCGCGAAATA
DNA 2: TATTTCGCGCGAAATATCCC
B16: site5 (dsDNA)
DNA 1: GGGATCTTTCTCGAGAAAGA
DNA 2: TCTTTCTCGAGAAAGATCCC
B17: site3 (dsDNA)
DNA 1: GGGATGTTTCCCGGGAAACA
DNA 2: TGTTTCCCGGGAAACATCCC

Columns and labels:
ParB PtoN7 (QTAR) = target: T1, ParB PtoN7 (QTAR); experiment: BLI; 1000 nM dimer; BLI: 100 mM Tris-HCl pH 7.4, 150 mM NaCl, 1 mM EDTA, 0.005% Tween 20; temperature not stated; biotinylated DNA on streptavidin sensor, protein typically 0-1000; conditions: protein: recombinant; tags: C-terminal His6; chain copies: 2; label: 5' biotin on strand 1; blunt
ParB PtoN1 (QTAG) = target: T2, ParB PtoN1 (QTAG); experiment: as above; conditions: protein: recombinant; tags: C-terminal His6; chain copies: 2; label: 5' biotin on strand 1; blunt
ParB DBD = target: T3, ParB DBD; experiment: X-ray crystallography 2.4 A; BLI: 100 mM Tris-HCl pH 7.4, 150 mM NaCl, 1 mM EDTA, 0.005% Tween 20; temperature not stated; biotinylated DNA on streptavidin sensor, protein typically 0-1000; conditions: protein: recombinant; tags: C-terminal His6; chain copies: 2; blunt; palindrome, 2 strand copies
ParB WT (RTAG) = target: T4, ParB WT (RTAG); experiment: BLI; BLI: 100 mM Tris-HCl pH 7.4, 150 mM NaCl, 1 mM EDTA, 0.005% Tween 20; temperature not stated; biotinylated DNA on streptavidin sensor, protein typically 0-1000; conditions: protein: recombinant; tags: C-terminal His6; chain copies: 2; label: 5' biotin on strand 1; blunt

Binder | binding result (ParB PtoN7 (QTAR)) | binding result (ParB PtoN1 (QTAG)) | binding result (ParB DBD) | Kd (ParB WT (RTAG)) [nM]
B1 | no binding | no binding | – | –
B2 | no binding | no binding | – | –
B3 | no binding | no binding | – | –
B4 | no binding | no binding | – | –
B5 | no binding | no binding | – | –
B6 | no binding | no binding | – | –
B7 | – | – | binds | –
B8 | no binding | no binding | – | –
B9 | no binding | no binding | – | –
B10 | no binding | no binding | – | –
B11 | no binding | no binding | – | –
B12 | no binding | no binding | – | 11 ± 7
B13 | no binding | no binding | – | –
B14 | no binding | no binding | – | –
B15 | no binding | no binding | – | –
B16 | no binding | no binding | – | –
B17 | no binding | no binding | – | –
